Laboratory results taken from patent EP3623383A1 (Deutsches Krebsforschungszentrum, Stiftung des öffentlichen …, dated 2020).

Molecular target: T1, FLT3 as expressed on cells (NALM16 cells, FLT3+) (human, UniProt P36888 27-993)
T1 construct: whole, on cells; Endogenous FLT3 of a human leukemia cell line; also called Nalm16 cells expressing FLT3
T1 sequence (looked up): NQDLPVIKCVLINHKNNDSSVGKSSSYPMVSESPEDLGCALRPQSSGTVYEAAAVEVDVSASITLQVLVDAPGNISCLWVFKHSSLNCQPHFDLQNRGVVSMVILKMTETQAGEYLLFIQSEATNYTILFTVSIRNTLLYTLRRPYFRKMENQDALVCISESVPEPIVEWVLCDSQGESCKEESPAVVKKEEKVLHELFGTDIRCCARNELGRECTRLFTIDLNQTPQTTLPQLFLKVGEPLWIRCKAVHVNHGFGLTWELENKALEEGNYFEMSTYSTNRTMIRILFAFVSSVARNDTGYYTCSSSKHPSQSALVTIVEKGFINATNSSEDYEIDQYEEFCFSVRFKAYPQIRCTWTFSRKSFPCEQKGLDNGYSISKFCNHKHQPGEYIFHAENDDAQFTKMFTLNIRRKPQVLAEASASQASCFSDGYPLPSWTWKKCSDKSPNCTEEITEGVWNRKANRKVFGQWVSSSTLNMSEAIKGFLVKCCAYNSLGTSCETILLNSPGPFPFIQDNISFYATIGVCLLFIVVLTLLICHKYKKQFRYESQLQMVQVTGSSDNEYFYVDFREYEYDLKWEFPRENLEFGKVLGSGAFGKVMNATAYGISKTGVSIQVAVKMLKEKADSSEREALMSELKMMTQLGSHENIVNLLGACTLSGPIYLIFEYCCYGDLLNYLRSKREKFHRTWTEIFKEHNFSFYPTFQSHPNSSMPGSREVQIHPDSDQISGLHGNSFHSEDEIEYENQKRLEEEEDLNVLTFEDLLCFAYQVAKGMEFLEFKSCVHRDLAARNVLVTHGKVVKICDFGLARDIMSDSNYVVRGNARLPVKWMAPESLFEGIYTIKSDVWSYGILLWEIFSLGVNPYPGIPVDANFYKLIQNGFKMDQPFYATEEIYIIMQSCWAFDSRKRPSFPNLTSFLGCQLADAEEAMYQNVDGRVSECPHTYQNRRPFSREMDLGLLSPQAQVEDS
Test: flow cytometry on FLT3+ NALM16 cells; value told of the FLT3 binding part shared by V6 to V9

Binder	EC50
V6-V8 (CC-2 variant, parental 4G8 FLT3 domain with UCHT1 CD3 scFv variant V8) (bispecific antibody, human IgG1, kappa, IgGsc format, Fc-attenuated) heavy: QVQLQQPGAELVKPGASLKLSCKSSGYTFTSYWMHWVRQRPGHGLEWIGEIDPSDSYKDYNQKFKDKATLTVDRSSNTAYMHLSSLTSDDSAVYYCARAITTTPFDFWGQGTTLTVSSASTKGPSVFPLAPSSKSTSGGTAALGCLVKDYFPEPVTVSWNSGALTSGVHTFPAVLQSSGLYSLSSVVTVPSSSLGTQTYICNVNHKPSNTKVDKKVEPKSCDKTHTCPPCPAPPVAGPSVFLFPPKPKDTLMISRTPEVTCVVVGVSHEDPEVKFNWYVDGVEVHNAKTKPREEQYNSTYRVVSVLTVLHQDWLNGKEYKCKVSNKQLPSPIEKTISKAKGQPREPQVYTLPPSRDELTKNQVSLTCLVKGFYPSDIAVEWESNGQPENNYKTTPPVLDSDGSFFLYSKLTVDKSRWQQGNVFSCSVMHEALHNHYTQKSLSLSPGKSGDIQMTQSPSSLSASVGDRVTITCRASQDIRNYLNWYQQKPGKAPKLLIYYTSRLESGVPSRFSGSGSGTDYTLTISSLQPEDFATYYCQQGNTLPWTFGQGTKVEIKGGGGSGGGGSGGGGSEVQLVESGGGLVQPGGSLRLSCAASGYSFTGYTMNWVRQAPGKGLEWVALINPYKGVSTYNQKFKDRFTISVDDSKNTAYLQMNSLRAEDTAVYYCARSGYYGDSDWYFDVWGQGTLVTVSS light: DIVLTQSPATLSVTPGDSVSLSCRASQSISNNLHWYQQKSHESPRLLIKYASQSISGIPSRFSGSGSGTDFTLSINSVETEDFGVYFCQQSNTWPYTFGGGTKLEIKRTVAAPSVFIFPPSDEQLKSGTASVVCLLNNFYPREAKVQWKVDNALQSGNSQESVTEQDSKDSTYSLSSTLTLSKADYEKHKVYACEVTHQGLSSPVTKSFNRGEC	~1 nM
V6-V6 (CC-2, FLT3 (4G8) x CD3 (humanized UCHT1) bispecific IgGsc antibody) (bispecific antibody, Mouse 4G8 variable regions on human IgG1 constant regions, Fc-attenuated, C-terminal humanized UCHT1 scFv; also called mouse FLT3xCD3 bispecific antibody) heavy: QVQLQQPGAELVKPGASLKLSCKSSGYTFTSYWMHWVRQRPGHGLEWIGEIDPSDSYKDYNQKFKDKATLTVDRSSNTAYMHLSSLTSDDSAVYYCARAITTTPFDFWGQGTTLTVSSASTKGPSVFPLAPSSKSTSGGTAALGCLVKDYFPEPVTVSWNSGALTSGVHTFPAVLQSSGLYSLSSVVTVPSSSLGTQTYICNVNHKPSNTKVDKKVEPKSCDKTHTCPPCPAPPVAGPSVFLFPPKPKDTLMISRTPEVTCVVVGVSHEDPEVKFNWYVDGVEVHNAKTKPREEQYNSTYRVVSVLTVLHQDWLNGKEYKCKVSNKQLPSPIEKTISKAKGQPREPQVYTLPPSRDELTKNQVSLTCLVKGFYPSDIAVEWESNGQPENNYKTTPPVLDSDGSFFLYSKLTVDKSRWQQGNVFSCSVMHEALHNHYTQKSLSLSPGKSGDIQMTQSPSSLSASVGDRVTITCRASQDIRNYLNWYQQKPGKAPKLLIYYTSRLESGVPSRFSGSGSGTDYTLTISSLQPEDFATYYCQQGNTLPWTFGQGTKVEIKGGGGSGGGGSGGGGSEVQLVESGGGLVQPGGSLRLSCAASGYSFTGYTMNWVRQAPGKGLEWVALINPYKGVSTYNQKFKDRFTISVDKSKNTAYLQMNSLRAEDTAVYYCARSGYYGDSDWYFDVWGQGTLVTVSS light: DIVLTQSPATLSVTPGDSVSLSCRASQSISNNLHWYQQKSHESPRLLIKYASQSISGIPSRFSGSGSGTDFTLSINSVETEDFGVYFCQQSNTWPYTFGGGTKLEIKRTVAAPSVFIFPPSDEQLKSGTASVVCLLNNFYPREAKVQWKVDNALQSGNSQESVTEQDSKDSTYSLSSTLTLSKADYEKHKVYACEVTHQGLSSPVTKSFNRGEC	~1 nM
